# From US20160106863A1 (IMMUNOGEN, published 2016)
# B1: huML66-sulfo-SPDB-1d conjugate (antibody, human IgG1, kappa, V domains shown)
# VH: QVQLQESGPGLVKPSETLSLTCTVSGLSLASNSVSWIRQPPGKGLEWMGVIWNHGGTDYNPSIKSRLSISRDTSKSQVFLKMNSLTAADTAMYFCVRKGGIYFDYWGQGVLVTVSS
# VL: DTVLTQSPSLAVSPGERATISCRASESVSTLMHWYQQKPGQQPKLLIYLASHRESGVPARFSGSGSGTDFTLTIDPMEAEDTATYYCQQSRNDPWTFGQGTKLELKR
# modifications: compound 1d linked via sulfo-SPDB linker, average of 3.0 molecules per antibody; attachment residues not stated
# Experiments:
# [1] = biological target: T47D cells (human) (UniProt P15328); assay: flow cytometry binding on T47D cells
# Sequence of T47D cells (human) (P15328 25-234, stated change not applied): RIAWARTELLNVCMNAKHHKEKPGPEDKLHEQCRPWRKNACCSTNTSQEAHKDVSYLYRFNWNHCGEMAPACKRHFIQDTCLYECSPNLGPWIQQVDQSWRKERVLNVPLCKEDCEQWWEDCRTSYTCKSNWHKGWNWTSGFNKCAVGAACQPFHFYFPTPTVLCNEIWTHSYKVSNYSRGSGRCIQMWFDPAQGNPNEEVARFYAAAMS
# [2] = biological target: EGFR (UniProt P00533 25-1210, limits assumed); assay: cell-based or functional assay
Molecule,EC50 [1] [nM],"EC50 in pM, in vitro cytotoxicity (WST-8), Detroit562 cells [2] [pM]","EC50 in pM, in vitro cytotoxicity (WST-8), Detroit562 cells, + block (excess unconjugated antibody) [2] [pM]","EC50 in pM, in vitro cytotoxicity (WST-8), NCI-H292 cells [2] [pM]","EC50 in pM, in vitro cytotoxicity (WST-8), NCI-H292 cells, + block (excess unconjugated antibody) [2] [pM]","EC50 in pM, in vitro cytotoxicity (WST-8), NCI-H1703 cells [2] [pM]","EC50 in pM, in vitro cytotoxicity (WST-8), NCI-H1703 cells, + block (excess unconjugated antibody) [2] [pM]"
huMOV19 antibody,0.203,–,–,–,–,–,–
B1,–,110,960,20,690,70,1310
